In US20260242735A1 (UNIVERSIT T BASEL, published 2026):

B1: Refmab #2 (antibody, human IgG1, V domains shown)
VH: QVQLVQSGAEVKKPGSSVKVSCKASGGTFSDYAISWVRQAPGQGLEWMGRIIPILGVADYAQKFQGRVTITADKSTRTAYMELSSLRSEDTAVYYCARNWADAFDIWGQGTMVTVSS
VL: DIQLTQSPSSLSASVGDRVTITCRASQGISSVLAWYQQKPGKAPKLLIYDASSLESGVPSRFSGSGSGTDFTLTISSLQPEDFATYYCQQFDSSITFGQGTKLEIK
notes: Tested in IgG format; human IgG1 Fc silent (PG-LALA)
B2: Refmab #3 (antibody, human IgG1, V domains shown)
VH: QVQLVQSGAEVKKPGSSVKVSCKASGYTFTDYNMHWVRQAPGQGLEWIGYIYPYNGGTGYNQKFKSKATITADESTNTAYMELSSLRSEDTAVYYCARGRPAMDYWGQGTLVTVSS
VL: DIQMTQSPSSLSASVGDRVTITCRASESVDNYGISFMNWFQQKPGKAPKLLIYAASNQGSGVPSRFSGSGSGTDFTLTISSLQPDDFATYYCQQSKEVPWTFGQGTKVEIK
notes: as for B1
B3: Refmab #1 (antibody, human IgG1, V domains shown)
VH: EVQLVQSGAEVKKPGSSVKVSCKASGYTITDSNIHWVRQAPGQSLEWIGYIYPYNGGTDYNQKFKNRATLTVDNPTNTAYMELSSLRSEDTAFYYCVNGNPWLAYWGQGTLVTVSS
VL: DIQLTQSPSTLSASVGDRVTITCRASESLDNYGIRFLTWFQQKPGKAPKLLMYAASNQGSGVPSRFSGSGSGTEFTLTISSLQPDDFATYYCQQTKEVPWSFGQGTKVEVK
notes: Tested in IgG format; human IgG1 (Absolute Antibody hP67.6, Cat. No. Ab00283-10.0); also called hP67.6
B4: Refmab #4 (antibody, human IgG1, V domains shown)
VH: QVQLVQSGAEVKKPGESVKVSCKASGYTFTNYGMNWVKQAPGQGLEWMGWINTYTGEPTYADKFQGRVTMTTDTSTSTAYMEIRNLGGDDTAVYYCARWSWSDGYYVYFDYWGQGTSVTVSS
VL: DIVMTQSPDSLTVSLGERTTINCKSSQSVLDSSTNKNSLAWYQQKPGQPPKLLLSWASTRESGIPDRFSGSGSGTDFTLTIDSPQPEDSATYYCQQSAHFPITFGQGTRLEIK
notes: as for B1

What follows are binders tested against human CD33 T42P (human, UniProt P20138 18-364) (assay: flow cytometry, mutant on cells, IgG).
Description: (§1) An alanine scan on human CD33 was performed to the determine the residues on CD33 that are involved in binding to the antibodies investigated. […] Briefly, a mutation library of CD33 was created by high-throughput, site-directed mutagenesis. Each residue was individually mutated to alanine, with alanine codons mutated to serine. The mutant library was arrayed in 384-well microplates and transiently transfected into HEK293-T. Following transfection, cells were incubated with the indicated antibodies (IgG or Fab) at concentrations pre-determined using an independent immunofluorescence titration curve on wild type CD33. […] Binding of each antibody to each mutant clone was determined in duplicates. For each point, background fluorescence was subtracted from the raw data, which were then normalized to antibody reactivity with wild type CD33.
(§2) Antibodies were screened for binding to the human CD33 variants in IgG format. […] For each mutation, background fluorescence was subtracted from the raw data, which were then normalized to antibody reactivity with wild-type CD33.

Row | Mean % WT Binding [% WT binding] | Binder
1 | 12.7 | B1
2 | 18.6 | B2
3 | 14.6 | B3
4 | 21.6 | B4

These binders were tested against human CD33 N20V (human, UniProt P20138 18-364) (assay: flow cytometry, mutant on cells, IgG).
Chain of human CD33 N20V (P20138 18-364 N20V limits assumed): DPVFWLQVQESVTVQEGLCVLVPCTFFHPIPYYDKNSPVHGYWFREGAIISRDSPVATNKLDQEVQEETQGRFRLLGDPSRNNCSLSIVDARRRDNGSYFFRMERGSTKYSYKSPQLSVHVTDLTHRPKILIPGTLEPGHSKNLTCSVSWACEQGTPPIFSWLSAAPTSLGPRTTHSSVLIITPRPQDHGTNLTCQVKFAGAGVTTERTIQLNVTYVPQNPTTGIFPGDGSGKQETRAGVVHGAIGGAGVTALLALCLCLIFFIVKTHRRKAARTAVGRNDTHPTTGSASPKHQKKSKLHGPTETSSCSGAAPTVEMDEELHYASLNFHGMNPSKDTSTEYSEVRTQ
Description: as §1, §2

Row | Mean % WT Binding [% WT binding] | Binder
5 | 116 | B1
6 | 0.5 | B2
7 | 4.2 | B3
8 | 118 | B4

What follows are binders tested against human CD33 F44S (human, UniProt P20138 18-364) (assay: flow cytometry, mutant on cells, IgG).
Chain of human CD33 F44S (P20138 18-364 F44S limits assumed): as the sequence (P20138 18-364 N20V limits assumed) above, with V3N, F27S counted along it
Description: as §1, §2

Row | Mean % WT Binding [% WT binding] | Binder
9 | 0.8 | B1
10 | 11.4 | B2
11 | 79.8 | B3
12 | 93.8 | B4

The binders below were run against human CD33 Q24V (human, UniProt P20138 18-364) (assay: flow cytometry, mutant on cells, IgG).
Description: as §1, §2

Row | Mean % WT Binding [% WT binding] | Binder
13 | 99.3 | B1
14 | 24.5 | B2
15 | 92.6 | B3
16 | 81.5 | B4

These binders were tested against human CD33 P46L (human, UniProt P20138 18-364) (assay: flow cytometry, mutant on cells, IgG).
Description: as §1, §2

Row | Mean % WT Binding [% WT binding] | Binder
17 | 93.8 | B1
18 | 0.7 | B2
19 | 28.9 | B3
20 | 96.3 | B4

Each binder was assayed against human CD33 F21S (human, UniProt P20138 18-364) (assay: flow cytometry, mutant on cells, IgG).
Description: as §1, §2

Row | Mean % WT Binding [% WT binding] | Binder
21 | 115 | B1
22 | 3.4 | B2
23 | 6.4 | B3
24 | 118 | B4

Each binder was assayed against human CD33 F44D (human, UniProt P20138 18-364) (assay: flow cytometry, mutant on cells, IgG).
Description: as §1, §2

Row | Mean % WT Binding [% WT binding] | Binder
25 | 2 | B1
26 | 1.2 | B2
27 | 98.9 | B3
28 | 110 | B4

These binders were tested against human CD33 N20E (human, UniProt P20138 18-364) (assay: flow cytometry, mutant on cells, IgG).
Description: as §1, §2

Row | Mean % WT Binding [% WT binding] | Binder
29 | 120 | B1
30 | 0.5 | B2
31 | 0.3 | B3
32 | 100 | B4

Each binder was assayed against human CD33 F43L (human, UniProt P20138 18-364) (assay: flow cytometry, mutant on cells, IgG).
Chain of human CD33 F43L (P20138 18-364 F43L limits assumed): as the sequence (P20138 18-364 N20V limits assumed) above, with V3N, F26L counted along it
Description: as §1, §2

Row | Mean % WT Binding [% WT binding] | Binder
33 | 45.8 | B1
34 | 111 | B2
35 | 111 | B3
36 | 100 | B4

What follows are binders tested against human CD33 Q24I (human, UniProt P20138 18-364) (assay: flow cytometry, mutant on cells, IgG).
Description: as §1, §2

Row | Mean % WT Binding [% WT binding] | Binder
37 | 96.8 | B1
38 | 61.3 | B2
39 | 80 | B3
40 | 86.6 | B4

The binders below were run against human CD33 W22Q (human, UniProt P20138 18-364) (assay: flow cytometry, mutant on cells, IgG).
Description: as §1, §2

Row | Mean % WT Binding [% WT binding] | Binder
41 | 108 | B1
42 | 12.5 | B2
43 | 99.5 | B3
44 | 111 | B4

What follows are binders tested against human CD33 Q24T (human, UniProt P20138 18-364) (assay: flow cytometry, mutant on cells, IgG).
Description: as §1, §2

Row | Mean % WT Binding [% WT binding] | Binder
45 | 95.2 | B1
46 | 3.9 | B2
47 | 81.4 | B3
48 | 97.2 | B4

What follows are binders tested against human CD33 N20P (human, UniProt P20138 18-364) (assay: flow cytometry, mutant on cells, IgG).
Chain of human CD33 N20P (P20138 18-364 N20P limits assumed): as the sequence (P20138 18-364 N20V limits assumed) above, with V3P counted along it
Description: as §1, §2

Row | Mean % WT Binding [% WT binding] | Binder
49 | 98.5 | B1
50 | 1.7 | B2
51 | 2.9 | B3
52 | 98.5 | B4

These binders were tested against human CD33 P46S (human, UniProt P20138 18-364) (assay: flow cytometry, mutant on cells, IgG).
Chain of human CD33 P46S (P20138 18-364 P46S limits assumed): as the sequence (P20138 18-364 N20V limits assumed) above, with V3N, P29S counted along it
Description: as §1, §2

Row | Mean % WT Binding [% WT binding] | Binder
53 | 102 | B1
54 | 3.5 | B2
55 | 21.4 | B3
56 | 107 | B4

Each binder was assayed against human CD33 F44I (human, UniProt P20138 18-364) (assay: flow cytometry, mutant on cells, IgG).
Description: as §1, §2

Row | Mean % WT Binding [% WT binding] | Binder
57 | 0.4 | B1
58 | 101 | B2
59 | 100 | B3
60 | 98.7 | B4

Each binder was assayed against human CD33 D18R (human, UniProt P20138 19-364) (assay: flow cytometry, mutant on cells, IgG).
Description: as §1, §2

Row | Mean % WT Binding [% WT binding] | Binder
61 | 96.5 | B1
62 | 5.3 | B2
63 | 60.6 | B3
64 | 100 | B4

These binders were tested against human CD33 W22L (human, UniProt P20138 18-364) (assay: flow cytometry, mutant on cells, IgG).
Description: as §1, §2

Row | Mean % WT Binding [% WT binding] | Binder
65 | 110 | B1
66 | 1.5 | B2
67 | 45.8 | B3
68 | 108 | B4

Each binder was assayed against human CD33 N20K (human, UniProt P20138 18-364) (assay: flow cytometry, mutant on cells, IgG).
Description: as §1, §2

Row | Mean % WT Binding [% WT binding] | Binder
69 | 103 | B1
70 | 0.8 | B2
71 | 0.4 | B3
72 | 102 | B4

Each binder was assayed against human CD33 P19D (human, UniProt P20138 18-364) (assay: flow cytometry, mutant on cells, IgG).
Chain of human CD33 P19D (P20138 18-364 P19D limits assumed): as the sequence (P20138 18-364 N20V limits assumed) above, with P2D, V3N counted along it
Description: as §1, §2

Row | Mean % WT Binding [% WT binding] | Binder
73 | 99.3 | B1
74 | 0.6 | B2
75 | 2.6 | B3
76 | 94.8 | B4

The binders below were run against human CD33 I47S (human, UniProt P20138 18-364) (assay: flow cytometry, mutant on cells, IgG).
Chain of human CD33 I47S (P20138 18-364 I47S limits assumed): as the sequence (P20138 18-364 N20V limits assumed) above, with V3N, I30S counted along it
Description: as §1, §2

Row | Mean % WT Binding [% WT binding] | Binder
77 | 3.4 | B1
78 | 94.9 | B2
79 | 105 | B3
80 | 90.1 | B4

Each binder was assayed against human CD33 W22P (human, UniProt P20138 18-364) (assay: flow cytometry, mutant on cells, IgG).
Chain of human CD33 W22P (P20138 18-364 W22P limits assumed): as the sequence (P20138 18-364 N20V limits assumed) above, with V3N, W5P counted along it
Description: as §1, §2

Row | Mean % WT Binding [% WT binding] | Binder
81 | 136 | B1
82 | 0.5 | B2
83 | 2.7 | B3
84 | 104 | B4

The binders below were run against human CD33 F43V (human, UniProt P20138 18-364) (assay: flow cytometry, mutant on cells, IgG).
Chain of human CD33 F43V (P20138 18-364 F43V limits assumed): as the sequence (P20138 18-364 N20V limits assumed) above, with V3N, F26V counted along it
Description: as §1, §2

Row | Mean % WT Binding [% WT binding] | Binder
85 | 24.5 | B1
86 | 101 | B2
87 | 101 | B3
88 | 81.5 | B4

What follows are binders tested against human CD33 V25L (human, UniProt P20138 18-364) (assay: flow cytometry, mutant on cells, IgG).
Chain of human CD33 V25L (P20138 18-364 V25L limits assumed): as the sequence (P20138 18-364 N20V limits assumed) above, with V3N, V8L counted along it
Description: as §1, §2

Row | Mean % WT Binding [% WT binding] | Binder
89 | 109 | B1
90 | 97.8 | B2
91 | 99.2 | B3
92 | 95 | B4

The binders below were run against human CD33 I47V (human, UniProt P20138 18-364) (assay: flow cytometry, mutant on cells, IgG).
Description: as §1, §2

Row | Mean % WT Binding [% WT binding] | Binder
93 | 97.2 | B1
94 | 100 | B2
95 | 112 | B3
96 | 99 | B4

These binders were tested against human CD33 V25M (human, UniProt P20138 18-364) (assay: flow cytometry, mutant on cells, IgG).
Description: as §1, §2

Row | Mean % WT Binding [% WT binding] | Binder
97 | 83 | B1
98 | 90.4 | B2
99 | 97.3 | B3
100 | 81.1 | B4

The binders below were run against human CD33 F44V (human, UniProt P20138 18-364) (assay: flow cytometry, mutant on cells, IgG).
Description: as §1, §2

Row | Mean % WT Binding [% WT binding] | Binder
101 | 2.3 | B1
102 | 101 | B2
103 | 99.5 | B3
104 | 96.6 | B4

Each binder was assayed against human CD33 P19L (human, UniProt P20138 18-364) (assay: flow cytometry, mutant on cells, IgG).
Description: as §1, §2

Row | Mean % WT Binding [% WT binding] | Binder
105 | 111 | B1
106 | 117 | B2
107 | 91.6 | B3
108 | 101 | B4

Each binder was assayed against human CD33 W22T (human, UniProt P20138 18-364) (assay: flow cytometry, mutant on cells, IgG).
Description: as §1, §2

Row | Mean % WT Binding [% WT binding] | Binder
109 | 103 | B1
110 | 1.3 | B2
111 | 6.2 | B3
112 | 103 | B4

These binders were tested against human CD33 H45Y (human, UniProt P20138 18-364) (assay: flow cytometry, mutant on cells, IgG).
Chain of human CD33 H45Y (P20138 18-364 H45Y limits assumed): as the sequence (P20138 18-364 N20V limits assumed) above, with V3N, H28Y counted along it
Description: as §1, §2

Row | Mean % WT Binding [% WT binding] | Binder
113 | 80.7 | B1
114 | 4 | B2
115 | 80.3 | B3
116 | 79.2 | B4

These binders were tested against human CD33 T42N (human, UniProt P20138 18-364) (assay: flow cytometry, mutant on cells, IgG).
Description: as §1, §2

Row | Mean % WT Binding [% WT binding] | Binder
117 | 98.2 | B1
118 | 95.5 | B2
119 | 99.4 | B3
120 | 101 | B4

The binders below were run against human CD33 F44L (human, UniProt P20138 18-364) (assay: flow cytometry, mutant on cells, IgG).
Chain of human CD33 F44L (P20138 18-364 F44L limits assumed): as the sequence (P20138 18-364 N20V limits assumed) above, with V3N, F27L counted along it
Description: as §1, §2

Row | Mean % WT Binding [% WT binding] | Binder
121 | 80 | B2
122 | 112 | B3
123 | 100 | B4

The binders below were run against human CD33 P46H (human, UniProt P20138 18-364) (assay: flow cytometry, mutant on cells, IgG).
Description: as §1, §2

Row | Mean % WT Binding [% WT binding] | Binder
124 | 95.1 | B1
125 | 0.5 | B2
126 | 0.7 | B3
127 | 69.5 | B4

The binders below were run against human CD33 V25I (human, UniProt P20138 18-364) (assay: flow cytometry, mutant on cells, IgG).
Description: as §1, §2

Row | Mean % WT Binding [% WT binding] | Binder
128 | 114 | B1
129 | 113 | B2
130 | 113 | B3
131 | 104 | B4

These binders were tested against human CD33 P46R (human, UniProt P20138 18-364) (assay: flow cytometry, mutant on cells, IgG).
Chain of human CD33 P46R (P20138 18-364 P46R limits assumed): as the sequence (P20138 18-364 N20V limits assumed) above, with V3N, P29R counted along it
Description: as §1, §2

Row | Mean % WT Binding [% WT binding] | Binder
132 | 64.7 | B1
133 | 1 | B2
134 | 1 | B3
135 | 106 | B4

The binders below were run against human CD33 W22Y (human, UniProt P20138 18-364) (assay: flow cytometry, mutant on cells, IgG).
Description: as §1, §2

Row | Mean % WT Binding [% WT binding] | Binder
136 | 107 | B1
137 | 11.5 | B2
138 | 98 | B3
139 | 86.1 | B4

These binders were tested against human CD33 N20Q (human, UniProt P20138 18-364) (assay: flow cytometry, mutant on cells, IgG).
Chain of human CD33 N20Q (P20138 18-364 N20Q limits assumed): as the sequence (P20138 18-364 N20V limits assumed) above, with V3Q counted along it
Description: as §1, §2

Row | Mean % WT Binding [% WT binding] | Binder
140 | 125 | B1
141 | 3.4 | B2
142 | 2.8 | B3
143 | 99.4 | B4

These binders were tested against human CD33 P46Y (human, UniProt P20138 18-364) (assay: flow cytometry, mutant on cells, IgG).
Description: as §1, §2

Row | Mean % WT Binding [% WT binding] | Binder
144 | 60.1 | B1
145 | 0.8 | B2
146 | 0.9 | B3
147 | 26.5 | B4
